This is an account of results in JP2016528193A (dated 2016).

The target of experiment [1] is ヒトPCSK9(野生型) (human). Nature of the experiment: Biacore at pH 6.0 (HBS-P with 0.01 % BSA), fitted from competition curves, n=1. (In SPR one partner is held on a chip, and binding of the other changes the refractive index at the surface.)
Experiment [2] concerns the target ヒトPCSK9(野生型) (human). As to the kind of experiment: KinExA solution equilibrium, PCSK9-coated beads. A general note: A kinetic exclusion assay measures how much of one partner remains free in solution.

B1: 16F12 (antibody, V domains shown)
VH: QVHLVESGGGVVQPGRSLRLSCAASGFTFNSFGMHWVRQAPGKGLEWVALIWSDGSDEYYADSVKGRFTISRDNSKNTLYLQMNSLRAEDTAVYYCARAIAALYYYYGMDVWGQGTTVTVSS
VL: QSVLTQPPSVSAAPGQKVTISCSGSSSNIGNNFVSWYQQLPGTAPKLLIYDYNKRPSGIPDRFSGSKSGTSATLGITGLQTGDEADYYCGTWDSSLSAYVFGTGTRVTVLQ
Take B1: the Kd in the experiment with ヒトPCSK9(野生型) [1] is 0.029 nM; with ヒトPCSK9(野生型) [2], 0.015 nM.

B2: 31H4 (antibody, V domains shown)
VH: EVQLVESGGGLVKPGGSLRLSCAASGFTFSSYSMNWVRQAPGKGLEWVSSISSSSSYISYADSVKGRFTISRDNAKNSLYLQMNSLRAEDTAVYFCARDYDFWSAYYDAFDVWGQGTMVTVSS
VL: QSVLTQPPSVSGAPGQRVTISCTGSSSNIGAGYDVHWYQQLPGTAPKLLISGNSNRPSGVPDRFSGSKSGTSASLAITGLQAEDEADYYCQSYDSSLSGSVFGGGTKLTVLQ
With B2, the Kd came out at 0.0125 nM with ヒトPCSK9(野生型) [1] and 0.003 nM with ヒトPCSK9(野生型) [2].

By Kd is commonly meant the constant that tells how readily two partners part at equilibrium.
